{"source": "paper PMC2919415", "about": "“Integrating Ion Mobility Mass Spectrometry with Molecular Modelling to Determine the Architecture of Multiprotein Complexes” (PLoS ONE, 2010)", "binders": {"B1": {"name": "γ subunit of the γ complex (clamp loader), E. coli (natural protein, UniProt P06710-2 1-431, looked up)", "chain": "MSYQVLARKWRPQTFADVVGQEHVLTALANGLSLGRIHHAYLFSGTRGVGKTSIARLLAKGLNCETGITATPCGVCDNCREIEQGRFVDLIEIDAASRTKVEDTRDLLDNVQYAPARGRFKVYLIDEVHMLSRHSFNALLKTLEEPPEHVKFLLATTDPQKLPVTILSRCLQFHLKALDVEQIRHQLEHILNEEHIAHEPRALQLLARAAEGSLRDALSLTDQAIASGDGQVSTQAVSAMLGTLDDDQALSLVEAMVEANGERVMALINEAAARGIEWEALLVEMLGLLHRIAMVQLSPAALGNDMAAIELRMRELARTIPPTDIQLYYQTLLIGRKELPYAPDRRMGVEMTLLRALAFHPRMPLPEPEVPRQSFAPVAPTAVMTPTQVPPQPQSAPQQAPTVPLPETTSQVLAARQQLQRVQGATKAKKE", "notes": "γ subunit of the E. coli clamp loader (γ complex); the legend speaks of the full length γ subunit against the truncated γ of the crystal structure; also called γ2; γ3; source: overexpressed in E. coli and purified as described [45-48]"}}, "key": {"[1]": {"molecular_target": "the molecule itself", "assay": "native MS; nano-electrospray ion mobility-MS (Synapt HDMS) of γ alone; 0.1 M NH4OAc pH 6.9"}, "[2]": {"molecular_target": "the molecule itself", "assay": "native MS; nano-electrospray ion mobility-MS (Synapt HDMS) of γδ′ subcomplexes; γ and δ′ mixed 3:2, then exchanged into 0.1 M NH4OAc"}, "[3]": {"molecular_target": "T1, δ′ subunit of the γ complex (clamp loader), E. coli (E. coli, UniProt P28631 1-334)", "T1 construct": "δ′ subunit of the E. coli clamp loader (γ complex); source: overexpressed in E. coli and purified as described [45-48]", "assay": "native MS; nano-electrospray ion mobility-MS (Synapt HDMS) of γδ′ subcomplexes; γ and δ′ mixed 3:2, then exchanged into 0.1 M NH4OAc", "conditions": "both partners purified"}}, "note": "“And” between values parts separate entries of the source, which are not always exact repeats. Equal values may be shown once.", "data": [{"binder": "B1", "values": [{"measurement": "stoichiometry N", "setting": "[1]", "value": 4}, {"measurement": "stoichiometry N", "setting": "[2]", "value": "2 and 3"}, {"measurement": "stoichiometry N", "setting": "[3]", "value": "2 γ per δ′ and 3 γ per δ′"}]}]}
